One molecule from paper PMC6954417 can be followed below.

This assay deals with DSS1 (human). Nature of the assay: MST; labelled DSS1 50 nM constant, RAD52 1 nM to 36 uM, 30 mM Tris-acetate pH 7.5, 1 mM DTT, 25°C, quadratic binding equation.

As a reminder, the Kd is the equilibrium constant for the complex coming apart.

B1: RAD52 (natural protein)
chain: MSGTEEAILGGRDSHPAAGGGSVLCFGQCQYTAEEYQAIQKALRQRLGPEYISSRMAGGGQKVCYIEGHRVINLANEMFGYNGWAHSITQQNVDFVDLNNGKFYVGVCAFVRVQLKDGSYHEDVGYGVSEGLKSKALSLEKARKEAVTDGLKRALRSFGNALGNCILDKDYLRSLNKLPRQLPLEVDLTKAKRQDLEPSVEEARYNSCRPNMALGHPQLQQVTSPSRPSHAVIPADQDCSSRSLSSSAVESEATHQRKLRQKQLQQQFRERMEKQQVRVSTPSAEKSEAAPPAPPVTHSTPVTVSEPLLEKDFLAGVTQELIKTLEDNSEKWAVTPDAGDGVVKPSSRADPAQTSDTLALNNQMVTQNRTPHSVCHQKPQAKSGSWDLQTYSADQRTTGNWESHRKSQDMKKRKYDPS
B1: the Kd turned out to be 14 nM.
